From patent publication US20200181257A1 (Chugai, published 2020)

T1: human Fcγ receptor hFcgRIIa (R) (human, UniProt P12318 36-217)
T1 construct: also called FcγRIIa (type R); FcγIIA
T1 chain: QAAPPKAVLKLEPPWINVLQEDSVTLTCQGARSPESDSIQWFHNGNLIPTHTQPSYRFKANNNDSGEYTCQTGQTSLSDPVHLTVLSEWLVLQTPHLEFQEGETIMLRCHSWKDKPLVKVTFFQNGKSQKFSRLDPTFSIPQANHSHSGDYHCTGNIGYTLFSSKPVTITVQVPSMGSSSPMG

T2: human Fcγ receptor hFcgRIIa (H) (human, UniProt P12318 36-217)
T2 construct: also called FcγRIIa (type H); FcγIIA
T2 sequence: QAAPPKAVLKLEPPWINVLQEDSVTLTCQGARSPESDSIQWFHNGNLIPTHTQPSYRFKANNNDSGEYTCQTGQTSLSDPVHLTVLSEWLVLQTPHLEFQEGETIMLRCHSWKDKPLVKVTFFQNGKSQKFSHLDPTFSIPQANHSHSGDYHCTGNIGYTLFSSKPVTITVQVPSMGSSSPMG

T3: human Fcγ receptor hFcgRIIb (human, UniProt P31994 43-217, limits assumed)
T3 construct: Construct used in the SPR assay is not described; also called FcγRIIb; FcγIIB
T3 sequence: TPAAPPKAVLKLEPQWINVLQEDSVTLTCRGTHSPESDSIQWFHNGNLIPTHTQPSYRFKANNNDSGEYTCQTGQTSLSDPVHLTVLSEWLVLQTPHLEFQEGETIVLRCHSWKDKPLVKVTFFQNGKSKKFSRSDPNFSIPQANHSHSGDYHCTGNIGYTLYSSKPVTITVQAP


Columns and labels:
Assay in all cases: SPR, antibody captured on Protein A
[1] = target: T4, human Fcγ receptor hFcgRIa (human, UniProt P12314 16-292, limits assumed)
T4 construct: Construct used in the SPR assay is not described; also called hFcγRIa; FcγI
T4 sequence (P12314 16-292 limits assumed): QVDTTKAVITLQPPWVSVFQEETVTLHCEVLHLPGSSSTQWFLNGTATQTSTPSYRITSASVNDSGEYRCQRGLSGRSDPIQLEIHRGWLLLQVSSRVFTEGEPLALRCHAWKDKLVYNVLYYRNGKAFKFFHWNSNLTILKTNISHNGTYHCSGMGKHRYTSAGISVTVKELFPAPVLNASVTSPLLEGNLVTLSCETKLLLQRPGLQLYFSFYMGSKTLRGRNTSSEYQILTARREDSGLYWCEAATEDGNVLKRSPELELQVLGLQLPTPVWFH
Experimental: (§1) The CH2 domain, which was modified in this examination, is known to be involved in interaction with several human Fcγ receptors (hereinafter denoted as hFcgRs) which affect effector functions. Therefore, the binding of TS1 and TS19 prepared by using the H chain of anti-IL6R produced in Example 2 to hFcgRs was measured, according to the method described in Reference Example 3.
(§2) Interactions between antibodies and hFcgRs (hFcgRIa, hFcgRIIa(R), hFcgRIIa(H), hFcgRIIb, hFcgRIIIa(F), and hFcgRIIIa(V)) were analyzed using Biacore T100 (GE Healthcare). HBS-EP+(GE Healthcare) was used for the running buffer, and the measurement temperature was set at 25° C. Protein A (Invitrogen) was immobilized by the amino coupling method, and an antibody of interest was captured thereon. Then, hFcγR solutions diluted using the running buffer were injected to allow interaction with the captured antibody at a flow rate of 30 μL/min for five minutes for hFcγRIa, and at a flow rate of 5 μL/min for one minute for the other hFcγRs. […] Since the hFcγR binding level depends on the amount of captured antibodies, the FcgR-binding levels were corrected so that the capture level of each antibody would be 200 RU (resonance unit) for hFcgRIa and 1000 RU (resonance unit) for the other hFcgRs. The captured antibodies were washed by allowing 10 mM glycine-HCl (pH 1.5) to react for 30 seconds at a flow rate of 30 μL/min to recycle the chip for reuse.

[2] = target: T1, human Fcγ receptor hFcgRIIa (R)
Experimental: as §1, §2

[3] = target: T2, human Fcγ receptor hFcgRIIa (H)
Experimental: as §1, §2

[4] = target: T3, human Fcγ receptor hFcgRIIb
Experimental: as §1, §2

[5] = target: T5, human Fcγ receptor hFcgRIIIa (V) (human, UniProt P08637 17-208)
T5 construct: also called FcγRIIIa allotype V158; FcγIIIA
T5 sequence (P08637 other isoform, or with tags, fused parts or gaps limits assumed): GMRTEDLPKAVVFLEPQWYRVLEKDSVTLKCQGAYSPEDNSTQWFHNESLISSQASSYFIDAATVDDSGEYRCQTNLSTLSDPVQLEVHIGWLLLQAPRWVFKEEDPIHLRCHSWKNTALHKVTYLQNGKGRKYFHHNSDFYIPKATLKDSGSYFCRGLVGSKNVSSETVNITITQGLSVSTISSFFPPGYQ
Experimental: as §1, §2

| binding relative to G1 (=100) [1] | binding relative to G1 (=100) [2] | binding relative to G1 (=100) [3] | binding relative to G1 (=100) [4] | binding relative to G1 (=100) [5] | Binder |
| --- | --- | --- | --- | --- | --- |
| 98.3 | 67.3 | 123 | 61.6 | 130 | TS2 (antibody, anti-IL6R IgG1, G1d with V266I/H268Q/E269D/D270E (EU); also called TS02) heavy: QVQLQESGPGLVRPSQTLSLTCTVSGYSITSDHAWSWVRQPPGRGLEWIGYISYSGITTYNPSLKSRVTMLRDTSKNQFSLRLSSVTAADTAVYYCARSLARTTAMDYWGQGSLVTVSSASTKGPSVFPLAPSSKSTSGGTAALGCLVKDYFPEPVTVSWNSGALTSGVHTFPAVLQSSGLYSLSSVVTVPSSSLGTQTYICNVNHKPSNTKVDKKVEPKSCDKTHTCPPCPAPELLGGPSVFLFPPKPKDTLMISRTPEVTCVVVDISQDEPEVKFNWYVDGVEVHNAKTKPREEQYNSTYRVVSVLTVLHQDWLNGKEYKCKVSNKALPAPIEKTISKAKGQPREPQVYTLPPSRDELTKNQVSLTCLVKGFYPSDIAVEWESNGQPENNYKTTPPVLDSDGSFFLYSKLTVDKSRWQQGNVFSCSVMHEALHNHYTQKSLSLSP light: not shown |
| 63 | 1.2 | 1.2 | 3.4 | 1.4 | TS13 (antibody, anti-IL6R IgG1, G1d with S267P/H268M/D270F (EU)) heavy: QVQLQESGPGLVRPSQTLSLTCTVSGYSITSDHAWSWVRQPPGRGLEWIGYISYSGITTYNPSLKSRVTMLRDTSKNQFSLRLSSVTAADTAVYYCARSLARTTAMDYWGQGSLVTVSSASTKGPSVFPLAPSSKSTSGGTAALGCLVKDYFPEPVTVSWNSGALTSGVHTFPAVLQSSGLYSLSSVVTVPSSSLGTQTYICNVNHKPSNTKVDKKVEPKSCDKTHTCPPCPAPELLGGPSVFLFPPKPKDTLMISRTPEVTCVVVDVPMEFPEVKFNWYVDGVEVHNAKTKPREEQYNSTYRVVSVLTVLHQDWLNGKEYKCKVSNKALPAPIEKTISKAKGQPREPQVYTLPPSRDELTKNQVSLTCLVKGFYPSDIAVEWESNGQPENNYKTTPPVLDSDGSFFLYSKLTVDKSRWQQGNVFSCSVMHEALHNHYTQKSLSLSP light: not shown |
| 96.8 | 25.3 | 15.9 | 21.7 | 28.9 | TS16 (antibody, anti-IL6R IgG1, G1d with Q295M/Y296G/S298G (EU)) heavy: QVQLQESGPGLVRPSQTLSLTCTVSGYSITSDHAWSWVRQPPGRGLEWIGYISYSGITTYNPSLKSRVTMLRDTSKNQFSLRLSSVTAADTAVYYCARSLARTTAMDYWGQGSLVTVSSASTKGPSVFPLAPSSKSTSGGTAALGCLVKDYFPEPVTVSWNSGALTSGVHTFPAVLQSSGLYSLSSVVTVPSSSLGTQTYICNVNHKPSNTKVDKKVEPKSCDKTHTCPPCPAPELLGGPSVFLFPPKPKDTLMISRTPEVTCVVVDVSHEDPEVKFNWYVDGVEVHNAKTKPREEMGNGTYRVVSVLTVLHQDWLNGKEYKCKVSNKALPAPIEKTISKAKGQPREPQVYTLPPSRDELTKNQVSLTCLVKGFYPSDIAVEWESNGQPENNYKTTPPVLDSDGSFFLYSKLTVDKSRWQQGNVFSCSVMHEALHNHYTQKSLSLSP light: not shown |
